One block for each binder: values may come before it.
B4: his6-SonM, wild type, individually expressed (enzyme, Shewanella oneidensis MR-1, UniProt Q8EGW3 1-263, looked up)
chain: MGSLVCVGTGLQLAGQISVLSRSYIEHADIVFSLLPDGFSQRWLTKLNPNVINLQQFYAQNGEVKNRRDTYEQMVNAILDAVRAGKKTVCALYGHPGVFACVSHMAITRAKAEGFSAKMEPGISAEACLWADLGIDPGNSGHQSFEASQFMFFNHVPDPTTHLLLWQIAIAGEHTLTQFHTSSDRLQILVEQLNQWYPLDHEVVIYEAANLPIQAPRIERLPLANLPQAHLMPISTLLIPPAKKLEYNYAILAKLGIGPEDLG
notes: SonM (SO1478), α-N-methyltransferase of Shewanella oneidensis MR-1, 263 AA; gene sonM amplified from genomic DNA; also called wt; source: E. coli BL21(DE3), pET28b, purified (Ni-NTA or HisTrap, Superdex 200 SEC); not shown: His6, N-terminal, kept

How the values were obtained:
[1] = biological target: T1, his6-SonM-Y58F, individually expressed (Shewanella oneidensis MR-1, UniProt Q8EGW3 1-263, SonM-Y58F); assay: cell-based or functional assay
T1 sequence (looked up): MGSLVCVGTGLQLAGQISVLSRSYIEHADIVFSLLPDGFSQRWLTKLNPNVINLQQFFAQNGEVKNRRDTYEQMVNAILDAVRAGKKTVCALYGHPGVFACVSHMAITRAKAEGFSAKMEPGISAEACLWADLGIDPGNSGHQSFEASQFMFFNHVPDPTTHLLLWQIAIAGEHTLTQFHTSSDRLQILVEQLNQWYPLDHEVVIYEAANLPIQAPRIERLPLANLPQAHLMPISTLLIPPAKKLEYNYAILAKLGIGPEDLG

[2] = biological target: B4; assay: cell-based or functional assay
[3] = biological target: T2, his6-SonM-Y93F, individually expressed (Shewanella oneidensis MR-1, UniProt Q8EGW3 1-263, SonM-Y93F); assay: cell-based or functional assay
T2 sequence (looked up): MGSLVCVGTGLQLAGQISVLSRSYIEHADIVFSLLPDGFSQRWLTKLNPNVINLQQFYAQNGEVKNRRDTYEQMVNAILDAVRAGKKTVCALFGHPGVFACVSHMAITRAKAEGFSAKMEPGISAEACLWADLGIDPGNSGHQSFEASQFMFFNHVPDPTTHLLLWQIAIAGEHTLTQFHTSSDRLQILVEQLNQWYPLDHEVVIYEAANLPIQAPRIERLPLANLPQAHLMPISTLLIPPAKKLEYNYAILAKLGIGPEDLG

[4] = biological target: T3, his6-SonM-Y71F, individually expressed (Shewanella oneidensis MR-1, UniProt Q8EGW3 1-263, SonM-Y71F); assay: cell-based or functional assay
T3 sequence (looked up): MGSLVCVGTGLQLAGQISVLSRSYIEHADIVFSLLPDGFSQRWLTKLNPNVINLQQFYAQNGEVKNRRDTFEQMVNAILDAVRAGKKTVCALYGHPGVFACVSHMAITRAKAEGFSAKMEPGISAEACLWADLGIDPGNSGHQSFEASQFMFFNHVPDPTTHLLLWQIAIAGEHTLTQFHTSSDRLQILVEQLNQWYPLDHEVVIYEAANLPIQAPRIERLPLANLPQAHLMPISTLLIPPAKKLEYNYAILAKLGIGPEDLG

[5] = biological target: T4, his6-SonM-R67K, individually expressed (Shewanella oneidensis MR-1, UniProt Q8EGW3 1-263, SonM-R67K); assay: cell-based or functional assay
T4 sequence (looked up): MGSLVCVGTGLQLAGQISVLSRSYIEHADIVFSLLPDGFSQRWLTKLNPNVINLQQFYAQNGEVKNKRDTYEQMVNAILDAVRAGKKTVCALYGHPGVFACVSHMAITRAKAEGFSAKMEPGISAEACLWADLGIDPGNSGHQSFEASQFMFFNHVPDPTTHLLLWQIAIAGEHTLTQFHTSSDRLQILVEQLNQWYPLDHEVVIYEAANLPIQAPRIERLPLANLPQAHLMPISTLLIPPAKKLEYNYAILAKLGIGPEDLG

[6] = biological target: B4; assay: enzyme inhibition kinetics (continuous coupled methyltransferase assay, A340); apparent Ki; 5 μM wt SonM, saturating SAM (1 mM), varying concentrations of SonA and of the inhibitor (SonA-BBD or SonA-2Me); non-linear regression in GraphPad Prism 8; conditions: both partners purified
[7] = biological target: the molecule itself; assay: SEC; oligomeric state of individually expressed and purified SonM and SonA (Supplementary Fig. 6); Superdex 200 in 50 mM HEPES pH 8, 300 mM NaCl, 10% glycerol is the sizing step of the purification

B3: SonA borosin binding domain only construct (SonA-BBD; 1-55) (domain or fragment, Shewanella oneidensis MR-1, UniProt Q8EGW2 1-55, looked up)
chain: MSGLSDFFTQLGQDAQLMEDYKQNPEAVMRAHGLTDEQINAVMTGDMEKLKTLSG
notes: SonA (SO1479) of Shewanella oneidensis MR-1, helical bundle composed of the first 55 amino acids (1-55); The his6 tag is stated for the individual construct; for the co-expression construct it is surmised from the template plasmid pMF1181; also called BBD-SonA; his6-SonA-BBD
Ki [6]: 3.9 µM

Binder: B4
stoichiometry N [7]: 2

Second part, the binder after the results:

apparent KM for SonA, coupled methyltransferase kinetics assay, saturating SAM [1]: 7.6 µM | apparent KM for SonA, coupled methyltransferase kinetics assay, saturating SAM [2]: 8.2 µM | apparent KM for SonA, coupled methyltransferase kinetics assay, saturating SAM [3]: 6.2 µM | apparent KM for SonA, coupled methyltransferase kinetics assay, saturating SAM [4]: 9.6 µM | apparent KM for SonA, coupled methyltransferase kinetics assay, saturating SAM [5]: 18 µM
B1: unmethylated SonA precursor peptide (SonA-0Me), his6-tagged (natural protein, Shewanella oneidensis MR-1, UniProt Q8EGW2 1-71, looked up)
chain: MSGLSDFFTQLGQDAQLMEDYKQNPEAVMRAHGLTDEQINAVMTGDMEKLKTLSGDSSYQSYLVISHGNGD

Ki [6]: 160 µM
B2: doubly α-N-methylated SonA precursor peptide (SonA-2Me), his6-tagged (natural protein, Shewanella oneidensis MR-1, UniProt Q8EGW2 1-71, looked up)
chain: MSGLSDFFTQLGQDAQLMEDYKQNPEAVMRAHGLTDEQINAVMTGDMEKLKTLSGDSSYQSYLVISHGNGD
modifications: N-methyl-L-leucine (MLE) at 63; N-methyl-L-isoleucine (IML) at 65 (backbone α-N-methylations)
notes: SonA (SO1479), borosin precursor peptide of Shewanella oneidensis MR-1; BBD leader 1-53, linker 54-61, core peptide 62-71; also called doubly methylated SonA; SO1479; source: E. coli BL21(DE3), co-expressed from pET28b with SonM, purified (Ni-NTA or HisTrap, Superdex 200 SEC)

Reference: publication PMC8429565, “Conformational rearrangements enable iterative backbone N-methylation in RiPP biosynthesis” (Nature Communications, 2021)
